According to patent publication US20210340562:

Key:
Assay in all cases: EMSA
[1] = test system: R2Bm SR/AIR/A mutant SR/AIR/A (double point, presumptive alpha-finger); conditions: 3' PBM RNA; reduced 13%; with 5' PBM RNA reduced 19-28%
[2] = test system: R2Bm SR/AGR/A mutant SR/AGR/A (double point, presumptive alpha-finger); conditions: 3' PBM RNA (upstream binding); increased up to 32%
R2Bm protein (WT) = R2Bm protein (WT) (UniProt V9H052); conditions: 3' or 5' PBM RNA; reference
[3] = test system: R2Bm GR/AD/A mutant GR/AD/A (double point, presumptive alpha-finger); conditions: 3' PBM RNA; reduced 24%; with 5' PBM RNA reduced about 13%

UniProt V9H052, sequence (V9H052 entry or part of it): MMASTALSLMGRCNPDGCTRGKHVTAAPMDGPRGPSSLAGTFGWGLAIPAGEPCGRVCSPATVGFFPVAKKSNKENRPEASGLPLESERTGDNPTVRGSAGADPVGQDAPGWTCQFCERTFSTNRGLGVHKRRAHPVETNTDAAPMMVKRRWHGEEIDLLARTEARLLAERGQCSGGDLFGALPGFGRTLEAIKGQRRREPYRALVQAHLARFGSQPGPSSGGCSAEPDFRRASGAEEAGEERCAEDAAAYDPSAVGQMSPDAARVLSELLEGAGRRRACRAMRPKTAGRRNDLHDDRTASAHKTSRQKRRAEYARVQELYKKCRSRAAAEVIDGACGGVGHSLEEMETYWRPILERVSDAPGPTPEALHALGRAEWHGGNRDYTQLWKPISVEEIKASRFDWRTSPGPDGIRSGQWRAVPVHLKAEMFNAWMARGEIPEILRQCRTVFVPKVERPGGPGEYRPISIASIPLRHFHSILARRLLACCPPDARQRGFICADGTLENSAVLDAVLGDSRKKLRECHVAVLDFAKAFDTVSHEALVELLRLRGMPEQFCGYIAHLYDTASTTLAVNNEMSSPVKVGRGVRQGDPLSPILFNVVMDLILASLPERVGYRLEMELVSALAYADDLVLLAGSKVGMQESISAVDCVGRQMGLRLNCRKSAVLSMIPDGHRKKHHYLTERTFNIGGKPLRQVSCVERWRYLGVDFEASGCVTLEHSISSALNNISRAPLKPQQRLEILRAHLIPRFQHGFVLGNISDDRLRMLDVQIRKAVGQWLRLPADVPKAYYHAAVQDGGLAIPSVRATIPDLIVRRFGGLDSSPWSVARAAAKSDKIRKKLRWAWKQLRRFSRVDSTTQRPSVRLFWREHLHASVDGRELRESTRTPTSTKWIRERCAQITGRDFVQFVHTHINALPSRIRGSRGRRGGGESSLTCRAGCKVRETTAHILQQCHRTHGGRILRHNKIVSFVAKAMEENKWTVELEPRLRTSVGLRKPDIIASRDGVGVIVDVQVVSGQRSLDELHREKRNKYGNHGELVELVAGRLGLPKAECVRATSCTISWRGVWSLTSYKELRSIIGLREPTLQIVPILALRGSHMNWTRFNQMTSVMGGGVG

linear 28S rDNA target was tested, and the binding signal (fraction of WT) [1] was 0.87, the binding signal (fraction of WT) [2] was 1.32 and the binding signal (fraction of WT) (R2Bm protein (WT)) was 1. The binding signal (fraction of WT) [3] was 0.76.
